Reference: the supplement of paper PMC10567573

B1: GNB5 (parent)
chain: DINSVRYYPSGDAFASGSDDATCR
B2: PPP2R2B (parent)
chain: RNTKRDVTLEASRENSKPRAILKP

Variants of: B1
Assay: protein stability index of a GFP-peptide fusion (GPS, HEK-293T) (PSI 1-6); higher = more stable
Details: c terminus: a fixed tail appended
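Further: lentivirally expressed fusions sorted by FACS into six bins by GFP to DsRed ratio, PSI derived from sequencing read proportions per bin multiplied by bin number.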

Protein stability index of substitutions, site by site:
I2: K 4.68; M 4.1; W 3.99; Q 4.72; L 3.82; Y 4.32; N 4.92; G 4.54; F 3.98; S 4.6; H 4.51; T 4.49; R 4.36; D 5.39; A 4.41; P 4.92; V 3.93; C 4.32; E 4.87
R6: K 4.34; G 4.3; I 3.88; W 3.33; A 4.44; E 5.13; V 3.91; Y 3.62; M 4.04; H 4.26; T 4.82; F 3.57; N 4.31; D 4.58; P 4.29; S 4.41; L 3.56; C 3.9; Q 4.64
V5: M 3.92; T 4.28; P 4.51; D 4.41; W 3.88; R 3.73; L 3.49; A 4.38; N 3.46; S 4.26; H 3.91; I 4.19; Q 3.85; F 3.74; K 3.91; C 3.81; Y 3.6; E 4.61; G 3.77
N3: C 3.87; D 5.08; Y 3.68; P 4.64; R 4.55; K 4.04; F 3.76; T 3.77; H 4.43; G 4.53; S 4.07; Q 4.31; L 3.35; E 4.52; I 3.57; V 3.56; M 3.42; A 4.66; W 3.74
S4: Y 3.75; N 3.55; Q 3.83; A 3.95; C 3.44; R 3.81; E 4.29; G 3.6; T 4.23; I 3.55; F 3.48; D 4.53; H 4.07; K 4.08; W 3.22; L 3.42; V 2.55; P 4.32; M 4.21
Y7: I 3.76; W 3.11; H 4.38; C 3.87; G 4.39; K 4.35; L 3.61; V 4.51; Q 4.21; D 4.77; P 4.46; R 4.2; S 4.69; N 4.26; M 4.12; A 4.5; F 3.87; E 5.19; T 4.64
Y8: M 4.55; C 4.43; A 4.49; N 4.34; H 3.78; F 3.82; D 4.87; Q 4.77; I 4.5; G 4.43; E 4.8; L 4.39; P 4.63; K 3.79
D1: C 3.44; L 3.73; I 3.48; A 4.18; G 4.36; W 2.68; F 2.54; S 4.74; N 4.37; Y 2.5; E 4.1; K 3.85; Q 4.23; T 3.95; R 4.04; V 3.58; M 3.81; H 3.48; P 3.33

Variants of: B2
Assay: as above
Details: c terminus: a fixed tail appended

Protein stability index, by site and new letter:
R5: H 4.85; V 4.91; D 4.68; E 5.03; S 4.49; P 4.79
D6: T 4.34; R 4.29; K 4.45; E 4.49; V 4.08
A11: T 4.44; W 3.95; Y 3.92; I 3.92; F 3.59; M 4.36; K 4.23; N 4.3; C 4.52; S 4.67
T8: K 4.86; M 4.34; S 4.3; C 4.2; E 4.9; R 4.68; Y 4.31
P24: A 4.74; M 4.06; K 4.26; T 4.88; R 4.13; Y 3.58; Q 4.47; F 3.56; H 4.41; V 4
K4: F 4.42; V 4.19; M 4.71; Q 4.96; A 4.43; C 3.8; T 4.82
L9: Q 5.07; A 4.9; M 4.84; F 4.11; I 4.38; D 5.09
K17: H 4.47; T 4.71; F 4.37; Q 4.81; L 4.56; V 4.66; D 4.57
N2: I 4.69; Y 4.37; P 4.31; H 4.66; R 4.02; D 4.89; W 3.34; C 4.27; F 4.51; M 4.4
L22: W 3.98; I 4.2; A 4.99; P 4.28; K 5.11; Q 4.92; D 5.09; G 4.69
N15: M 4.09; T 4.49; S 4.85; Y 4.09; C 4.13; P 4.32
R19: N 4.7; D 4.86; Q 4.75; Y 4.21; G 4.86; C 4.69; V 4.72; I 4.39
I21: S 4.78; R 5.35; K 4.83; Y 4.5; W 4.7
R13: I 4.53; Q 4.75; N 4.83; D 5.09; T 4.07; E 5.14; C 4.16; G 5.06
K23: N 4.18; P 4.5; C 4.25; D 4.79; S 4.56; V 4.31; R 4.04; E 4.5
T3: H 4.4; Q 4.75; V 4.57; P 4.53; S 4.61; K 4.91; L 4.64; R 4.45; N 3.95; G 4.29
R1: T 4.99; C 4.88; K 4.65; A 4.61; S 4.47; N 4.79; M 4.44; H 4.72; Y 4.22; L 4.62; W 4.45
E10: L 3.6; M 3.83; V 4.35; R 4.01; G 4.32; W 2.77; H 4.12
S12: F 3.58; D 4.8; G 5.13; T 4.79; H 4.73
P18: E 5; T 4.54; K 4.73; W 3.87; Y 3.62; A 4.52; R 4.79; C 4.25; D 5.07
V7: W 4.61; G 4.83; L 4.42; C 3.77; Y 4.63; R 4.59; E 4.46
E14: W 3.87; D 4.4; H 4.49; A 4.66; Y 3.67; L 4.04; G 4.4; R 4.14; P 4.3; N 4.72; Q 4.97; K 4.12; F 3.88
S16: Y 4.17; A 4.51; H 4.57; D 4.58; W 3.37; P 4.96; E 4.75; R 4.24; K 4.23
A20: D 4.64; G 4.39; M 4.65; K 5.04; Q 4.44
